Drawing on PMC2751797, this text covers Km and kcat/Km for one protein.

Substrate in this data set: NC(=O)c1cc(N2CC2)c([N+](=O)[O-])cc1[N+](=O)[O-]
Nature of the data set: purified protein. The note with it: NADPH 60 μM fixed, 10 mM Tris-HCl pH 7.5, 23 °C. Format: biochemical, Escherichia coli.

In general, Km refers to the substrate concentration at which the rate is half of its maximum. Usually kcat/Km stands for the second-order rate constant that governs catalysis at low substrate concentration.

B1: NfsB (His6-NfsB) (Escherichia coli K-12) (protein)
chain: MDIISVALKRHSTKAFDASKKLTPEQAEQIKTLLQYSPSSTNSQPWHFIVASTEEGKARVAKSAAGNYVFNERKMLDASHVVVFCAKTAMDDVWLKLVVDQEDADGRFATPEAKAANDKGRKFFADMHRKDLHDDAEWMAKQVYLNVGNFLLGVAALGLDAVPIEGFDAAILDAEFGLKEKGYTSLVVVPVGHHSVEDFNATLPKSRLPQNITLTEV
Turning to B1, the Michaelis-Menten constant (Km) is 79 ± 22 µM and the catalytic efficiency (kcat/Km) stood at 26000 M⁻¹ s⁻¹.
